Source: publication PMC3784475 (PLoS Pathogens, 2013)

B1: 4E10 IgG (antibody, V domains shown)
VH: QVQLVQSGAEVKRPGSSVTVSCKASGGSFSTYALSWVRQAPGRGLEWMGGVIPLLTITNYAPRFQGRITITADRSTSTAYLELNSLRPEDTAVYYCAREGTTGWGWLGKPIGAFAHWGQGTLVTVSS
VL: EIVLTQSPGTQSLSPGERATLSCRASQSVGNNKLAWYQQRPGQAPRLLIYGASSRPSGVADRFSGSGSGTDFTLTISRLEPEDFAVYYCQQYGQSLSTFGQGTKVEVK
notes: variable domain in PDB 4LLV (4E10 Fv, solved here), 2FX7 (4E10 Fab) and 3H3P; IgG, the bivalent form; also called bNAb 4E10; Polymun AB004; source: bought: Polymun Scientific; copies: 2 + 2

What was measured:
[1] = target: HIV gp140 SF162 trimers (HIV (isolate SF162)); assay: SPR; HIV gp140 SF162 trimers amine-coupled on a CM5 chip (3250 RU); HCDR3-grafted Ubq fusions injected at 1 µM and 5 or 10 µM; HBS-EP+ (10 mM HEPES pH 7.4, 150 mM NaCl, 3 mM EDTA, 0.05% P20); 25°C; duplicate runs
Strep-tagged Scn control = target: T1, Strep-tagged Scn control (Homo sapiens, UniProt P80188); assay: SPR; about 3000 RU of each Scn-peptide fusion or Strep-tagged Scn control amine-coupled on CM5 chips; 4E10 IgG injected at 300 nM in HBS-EP+ or HBS-EP+ at 500 mM NaCl; 25°C; responses normalised by specific activity; settings: both partners purified
T1 construct: siderocalin (Scn), human; also called siderocalin construct minus peptide; not shown: Strep-tag, C-terminal, kept

Molecule	Kd [1] [µM]	binding result (Strep-tagged Scn control)
2F5 HCDR3-grafted ubiquitin fusion (designed binder)	> 10	
4E10 HCDR3-grafted ubiquitin fusion (designed binder)	> 10	
b12 HCDR3-grafted ubiquitin fusion (designed binder)	> 10	
B1		no binding (tested: 300 nM)
